How the values were obtained:
Assay in all cases: EMSA
Settings in all cases: EMSA: pKa-matched buffers (ethanolamine-CAPSO pH 9.6, Tris-acetate pH 8.0, bis-Tris-ACES pH 6.7), 155 mM NaCl, 5 nM DNA, 2.5-20 or 40 uM protein, 30 min room …
[1] = molecular target: T1, 0100 (Csa1A) (Staphylococcus aureus USA300 LAC) (UniProt Q2FKG1)
T1 sequence: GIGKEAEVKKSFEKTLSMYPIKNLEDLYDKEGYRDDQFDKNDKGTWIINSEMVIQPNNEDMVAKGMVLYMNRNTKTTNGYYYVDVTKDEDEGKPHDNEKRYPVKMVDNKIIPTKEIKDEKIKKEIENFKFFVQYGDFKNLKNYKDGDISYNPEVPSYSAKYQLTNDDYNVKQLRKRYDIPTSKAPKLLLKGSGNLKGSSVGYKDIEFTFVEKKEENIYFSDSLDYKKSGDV

[2] = molecular target: T2, CopL (0079) (Staphylococcus aureus USA300 LAC) (UniProt A0A0H2XFS1)
T2 sequence: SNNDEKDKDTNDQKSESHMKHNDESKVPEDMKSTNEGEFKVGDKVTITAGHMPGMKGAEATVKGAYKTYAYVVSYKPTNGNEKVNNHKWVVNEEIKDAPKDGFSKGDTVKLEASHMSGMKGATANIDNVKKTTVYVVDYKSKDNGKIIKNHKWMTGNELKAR

[3] = molecular target: T3, DsbA (Staphylococcus aureus USA300 LAC) (UniProt A0A0H2XFS3)
T3 sequence: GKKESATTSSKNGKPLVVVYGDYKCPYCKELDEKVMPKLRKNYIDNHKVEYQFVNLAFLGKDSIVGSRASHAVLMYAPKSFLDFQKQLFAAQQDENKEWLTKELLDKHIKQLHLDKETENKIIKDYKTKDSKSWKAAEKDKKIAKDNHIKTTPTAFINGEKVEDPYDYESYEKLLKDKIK

Measured: binding

GTTCATTATGAAGTCCCTCCAAAAATCATTTGATAATATAGTTTACAGCTATAATTGTAAACGCTATCATAAAATGTAACAATATCTTTTTGAAAATTGTAGTCATATTTATGTATAATTAATGAAAATGTTTTTCAAAATCAATAGAAATGGAGTGAGTAAGGTGTATTACATCGCAATCGATATTGGAGGCACTCAAATTAAATCGGCAGTTATTGATAAGCAATTGAATATGTTTGACTATCAACAAATATCAACG (double strand) [259-bp nanA promoter probe]
binds: all assays above

Source: PMC6593408
